Molecular target: inter-alpha-inhibitor (IαI) (human) (UniProt P19827)
Sequence (P19827 whole entry, looked up): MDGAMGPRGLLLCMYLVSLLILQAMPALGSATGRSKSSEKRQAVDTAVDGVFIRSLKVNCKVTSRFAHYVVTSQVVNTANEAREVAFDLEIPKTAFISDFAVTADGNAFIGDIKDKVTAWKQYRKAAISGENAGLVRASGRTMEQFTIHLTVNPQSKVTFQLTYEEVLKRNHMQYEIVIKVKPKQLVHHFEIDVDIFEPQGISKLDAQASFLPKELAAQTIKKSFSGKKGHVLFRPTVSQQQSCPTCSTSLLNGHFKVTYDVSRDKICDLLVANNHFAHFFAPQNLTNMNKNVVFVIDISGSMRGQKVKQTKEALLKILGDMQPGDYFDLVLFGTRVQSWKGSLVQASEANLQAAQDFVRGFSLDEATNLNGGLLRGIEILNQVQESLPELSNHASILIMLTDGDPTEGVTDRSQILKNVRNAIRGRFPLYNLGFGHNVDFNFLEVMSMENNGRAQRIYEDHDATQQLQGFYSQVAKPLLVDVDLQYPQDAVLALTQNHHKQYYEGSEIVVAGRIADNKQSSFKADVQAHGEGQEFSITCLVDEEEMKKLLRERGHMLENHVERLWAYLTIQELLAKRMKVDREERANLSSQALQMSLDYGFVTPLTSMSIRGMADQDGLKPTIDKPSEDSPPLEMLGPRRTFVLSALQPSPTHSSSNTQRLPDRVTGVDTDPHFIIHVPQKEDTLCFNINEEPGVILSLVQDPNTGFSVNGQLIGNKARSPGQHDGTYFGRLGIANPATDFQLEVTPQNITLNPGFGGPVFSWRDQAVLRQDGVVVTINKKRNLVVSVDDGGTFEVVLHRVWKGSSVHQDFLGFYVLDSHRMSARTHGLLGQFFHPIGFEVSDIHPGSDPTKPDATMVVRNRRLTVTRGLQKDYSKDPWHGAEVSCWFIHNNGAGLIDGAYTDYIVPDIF

Substance: Full-length human TSG-6 (rhTSG-6) E183S mutant (from UniProt P98066 18-277) (natural protein)
- amount of HC·TSG-6 product with added calcium ions (SDS-PAGE band intensity): 5 % of WT
